This is an account of results in PMC3741069 (Biochemistry, 2013).

Substrate in the series: O=[N+]([O-])O
Put plainly: steady-state nitrate reductase assay, Michaelis-Menten fit. The format is biochemical, Synechococcus elongatus. Conditions: saturating reduced ferredoxin (Synechocystis sp. PCC 6803) as electron donor.

Changes are numbered by the printed parent chain. Names may count otherwise.

B1: nitrate reductase (NarB) (Synechococcus elongatus PCC 7942 = FACHB-805; R160Q) (protein)
chain: MIDTAKTLCPYCGVGCGLEAVPPAQPGRATVRDREGTPIWQIRGDRQHPSSQGMVCVKGATVAESVSKSRLKYPMFRASLDDPFTEISWDEALDRLCDRIQQTQADYGKDGICFYGSGQFQTEDYYIAQKLVKGCLGTNNFDTNSQLCMSSAVSAYSLCLGSDGPPACYEDLDLADCLLIVGSNTAECHPILFNRYRKRHKQGGTNLIVVDPRCTPTAEVADLHLALKPGSDVALLNGLGWLLYQMGYVKKDFIANQTEGFEDWLAIIEDYPPQRTAELTGLAVAELVRAADLIASAQRWLSLWSMGVNQSIQGTAKATSLINLHLLTRQIGLPGCGPFSLTGQPNAMGGRETGGLAHLLPGYRKVIDPQHRADVETIWGLPMGSISPQPGRTAWQMIEGLEQGAVGFLWVAATNPAVSLPDVKRAQAALKRSPFTVLQDAYHPTETTTYAHLLLPAAQWSEKTGTMTNSERRVTLCQAFRQPPGEARADWQIFAEVGRRLGFAFDYTDAAAVFAEYVQVTAGRLCDLSGLSHELLAQAGPQQWPFPAGAEPTTESKRLYTKHHFAYADGRARFQPFHHLGVAEPPDDRYPLVLTVGRLYGHWHTQTRTGRIDKINKLHPSAFVEIHPRDADRYNISEGQAVVIRSRRGEGCFPAKVTTAISPGVLFVPMHWGALWGDRTEANALTHPAACPISGEPELKACAVQIEAASSTFTI
On to B1, for which the Km is 2.5 ± 0.3 µM.

B2: nitrate reductase (NarB) (Synechococcus elongatus PCC 7942 = FACHB-805) (protein)
chain: B1 chain with Q146R
As to B2, the Km came out at 6.0 ± 1.0 µM.

B3: nitrate reductase (NarB) (Synechococcus elongatus PCC 7942 = FACHB-805; K144Q) (protein)
chain: B1 chain with K130Q, Q146R
On to B3, for which the Km worked out at 3.3 ± 0.5 µM.

B4: nitrate reductase (NarB) (Synechococcus elongatus PCC 7942 = FACHB-805; K144R) (protein)
chain: B1 chain with K130R, Q146R
In the case of B4, the Km stood at 5.7 ± 2.5 µM.
